A short description of this data set: Animal Experiment (1): radioactivity distribution of 111In-labeled NGA in organs after tail vein administration. As for the experimental part:
Five mice per group were slaughtered 5 minutes or 1 hour after the administration, the blood and organs of interest were recovered, and after measuring the organ weight, the radioactivity was measured with an auto-well gamma counter.

[1] abbreviates: 5 minutes after the administration, tail vein, male ddY mouse.
The mark [2] stands for this setting: 1 hour after the administration, tail vein, male ddY mouse.
[3] abbreviates: mouse, in vivo, iv, 11.1 kBq/8 ug protein/100 uL/mouse, 5 min.
Setting [4] is: mouse, in vivo, iv, 11.1 kBq/8 ug protein/100 uL/mouse, 1 h.

Turning to ^111In-DO3ABn-Gly-Lys-NGA, under setting [1], the “radioactivity (% ID) Blood” value was determined as 0.1 ± 0.2 % ID, the “radioactivity (% ID) Heart” value is 0.0 ± 0.0 % ID, the “radioactivity (% ID) Kidney” value is reported as 0.1 ± 0.0 % ID and the “radioactivity (% ID) Liver” value is reported as 89.5 ± 3.4 % ID. Under setting [1], the “radioactivity (% ID) Lung” value came to 0.1 ± 0.1 % ID, the “radioactivity (% ID) Pancreas” value is listed as 0.0 ± 0.0 % ID, the “radioactivity (% ID) Small intestine” value is 0.1 ± 0.1 % ID and the “radioactivity (% ID) Spleen” value is recorded as 0.2 ± 0.0 % ID. In addition, the “radioactivity (% ID) Stomach” value under setting [1] is recorded as 0.1 ± 0.1 % ID. Further, under setting [2], the “radioactivity (% ID) Blood” value was determined as 0.0 ± 0.0 % ID, the “radioactivity (% ID) Heart” value was 0.0 ± 0.0 % ID, the “radioactivity (% ID) Kidney” value was 0.2 ± 0.0 % ID and the “radioactivity (% ID) Liver” value is given as 89.1 ± 1.2 % ID. For the same substance, under setting [2], the “radioactivity (% ID) Lung” value turned out to be 0.0 ± 0.0 % ID, the “radioactivity (% ID) Pancreas” value came to 0.0 ± 0.0 % ID, the “radioactivity (% ID) Small intestine” value was 2.5 ± 0.7 % ID and the “radioactivity (% ID) Spleen” value stood at 0.2 ± 0.0 % ID. Besides, the “radioactivity (% ID) Stomach” value under setting [2] is recorded as 0.1 ± 0.1 % ID.

^111In-DO3ABn-Phe-Lys-NGA: under setting [3], the “radioactivity (% ID) Blood” value amounted to 0.1 ± 0.0 % ID, the “radioactivity (% ID) Kidney” value is reported as 0.2 ± 0.0 % ID, the “radioactivity (% ID) Liver” value worked out at 91.1 ± 6.2 % ID and the “radioactivity (% ID) Lung” value turned out to be 0.1 ± 0.0 % ID. For the same substance, under setting [3], the “radioactivity (% ID) Small intestine” value is given as 0.1 ± 0.1 % ID, the “radioactivity (% ID) Spleen” value worked out at 0.2 ± 0.0 % ID and the “radioactivity (% ID) Stomach” value worked out at 0.1 ± 0.1 % ID. Moreover, under setting [4], the “radioactivity (% ID) Kidney” value amounted to 0.9 ± 0.3 % ID, the “radioactivity (% ID) Liver” value is 49.5 ± 5.6 % ID, the “radioactivity (% ID) Lung” value came out at 0.1 ± 0.1 % ID and the “radioactivity (% ID) Small intestine” value is on record as 27.8 ± 6.5 % ID. Also, under setting [4], the “radioactivity (% ID) Spleen” value came out at 0.2 ± 0.1 % ID and the “radioactivity (% ID) Stomach” value is 1.1 ± 0.7 % ID.

The record behind these values is patent publication US11701440B2, “Modified antibody and radioactive metal-labelled antibody” (NIHON MEDI-PHYSICS CO., LTD., priority 2018, dated 2023).
